Experimental data: patent US20110244498

System: non-phosphorylated pKID-Abl

Abl tyrosine kinase (New England Biolabs)
conversion of non-phosphorylated pKID-Abl to phosphorylated pKID-Abl (analytical HPLC, 30 min at 37 C, 300 units Abl): 62% conversion of non-phosphorylated pKID-Abl to phosphorylated pKID-Abl in the absence of Gleevec | conversion of non-phosphorylated pKID-Abl to phosphorylated pKID-Abl in the presence of 50 µM Gleevec (analytical HPLC): less than 5% conversion was observed in the presence of Gleevec | terbium luminescence after incubation with kinase: resulted in a significant increase in terbium luminescence
